Source: article PMC12699821, “STARD4 suppresses tumorigenesis and attenuates enzalutamide resistance via lipid metabolic reprogramming and AR stabilization in prostate cancer” (Journal of Experimental & Clinical Cancer Research : CR, 2025)

Biological target: T1, GST-tagged AR (human (Gene ID 367 is the human gene), UniProt P10275 1-920)
T1 construct: androgen receptor, Gene ID 367, in vector pGEX-4T-1; also called GST-AR; source: BL21 (Rosetta) bacterial cells, purified (protein purification kit)
T1 sequence (looked up): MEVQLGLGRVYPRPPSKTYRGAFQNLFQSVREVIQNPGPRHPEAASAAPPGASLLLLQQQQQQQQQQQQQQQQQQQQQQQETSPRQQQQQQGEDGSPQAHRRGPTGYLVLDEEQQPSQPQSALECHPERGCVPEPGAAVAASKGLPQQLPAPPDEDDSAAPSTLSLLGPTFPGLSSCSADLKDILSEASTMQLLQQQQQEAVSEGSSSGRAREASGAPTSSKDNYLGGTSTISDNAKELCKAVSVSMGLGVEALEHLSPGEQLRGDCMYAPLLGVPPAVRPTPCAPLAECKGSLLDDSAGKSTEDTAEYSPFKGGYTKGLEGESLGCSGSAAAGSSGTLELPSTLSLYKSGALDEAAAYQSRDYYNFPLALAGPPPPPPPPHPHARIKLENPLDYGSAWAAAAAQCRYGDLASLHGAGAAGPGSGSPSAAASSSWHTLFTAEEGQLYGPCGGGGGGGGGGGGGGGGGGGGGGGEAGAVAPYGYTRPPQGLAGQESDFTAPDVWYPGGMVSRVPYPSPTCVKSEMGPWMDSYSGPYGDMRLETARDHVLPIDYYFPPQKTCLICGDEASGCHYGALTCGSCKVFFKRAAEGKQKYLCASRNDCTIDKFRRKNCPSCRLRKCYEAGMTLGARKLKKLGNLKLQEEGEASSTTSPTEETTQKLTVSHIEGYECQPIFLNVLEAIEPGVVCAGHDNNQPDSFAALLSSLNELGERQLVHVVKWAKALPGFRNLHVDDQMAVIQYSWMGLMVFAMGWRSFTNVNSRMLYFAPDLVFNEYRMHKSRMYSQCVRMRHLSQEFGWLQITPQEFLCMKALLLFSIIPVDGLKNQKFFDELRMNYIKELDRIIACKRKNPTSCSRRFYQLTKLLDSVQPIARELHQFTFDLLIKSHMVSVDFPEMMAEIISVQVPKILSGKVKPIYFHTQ
Test: pull-down; purified GST-tagged protein immobilised on glutathione-Sepharose beads, incubated with His-tagged protein in PMSF-supplemented affinity isolation buffer, western blotting
Settings: both partners purified

binding result: binds
B1: His-tagged STARD4 (natural protein, human (Gene ID 134429 is the human gene), UniProt Q96DR4 1-205, looked up)
chain: MEGLSDVASFATKLKNTLIQYHSIEEDKWRVAKKTKDVTVWRKPSEEFNGYLYKAQGVIDDLVYSIIDHIRPGPCRLDWDSLMTSLDILENFEENCCVMRYTTAGQLWNIISPREFVDFSYTVGYKEGLLSCGISLDWDEKRPEFVRGYNHPCGWFCVPLKDNPNQSLLTGYIQTDLRGMIPQSAVDTAMASTLTNFYGDLRKAL
notes: STARD4, Gene ID 134429, vector printed as pGMLV; also called His-STARD4; source: BL21 (Rosetta) bacterial cells, purified (protein purification kit)
